Among the data in paper PMC7379572 are binding values, retold here.

Holding throughout (assay): EMSA
Holding throughout (conditions): EMSA: 0.25 pmol 3'-biotin DNA, 25°C 2 h, LightShift Chemiluminescent EMSA kit buffer (composition and pH not stated), 6% DNA retardation gel, 0.5x TBE
Background: Mobility shift assays separate free from complexed probe on a gel.

For data set [1], the target named is T1, XisF5 (Pseudomonas aeruginosa PA14) (UniProt A0A0H2Z817).
T1 sequence: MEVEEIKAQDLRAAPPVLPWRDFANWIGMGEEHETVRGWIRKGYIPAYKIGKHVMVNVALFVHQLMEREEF

The test system of data set [2] is T2, XisF4 (Pseudomonas aeruginosa PAO1), ORF:74e9b1d3.
T2 sequence: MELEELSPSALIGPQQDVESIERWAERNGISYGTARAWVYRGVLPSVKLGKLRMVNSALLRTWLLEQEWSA

The subject of data set [3] is T3, Pf4r (Pseudomonas aeruginosa PAO1), ORF:4ff4b857.
T3 sequence: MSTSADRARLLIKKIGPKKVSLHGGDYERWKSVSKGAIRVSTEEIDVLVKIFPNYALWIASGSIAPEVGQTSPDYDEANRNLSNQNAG

Turning to “CATTTGTCGCCGGAGTACCTGCGGGACGCTATTCGACTCAACCCGCTGGCGGATTTCGACAGTTCTTCGACACTTGTCGAGACGTCCTAGATTTTTCCTTTGCATATCAATAAGTTATGAGCGCTGATTCGGCTTTGCCGA (double strand) [Pf5 attL]”, the binding entry in data set [1] is on record as “binds”.
In the case of “CGCGGTAAAGCCTGAAAACAGAAAGCCCCTGGCACTGGTTGGTGTCAGGGGCTTTTGCATTGGGATCTGGAGCGGGCGAAGGGAATCGAACCCTCGTCATGAGCTTGGGAAGCTCAGGTAATGCCATTATACGACGCCCGCTCGGACGGCTTTTGCGGCCAGGGCGCCTTTTTACCAGATGCGCGGC (double strand) [Pf4 attB]”, the binding result in data set [2] is listed as “no binding”.
The same measure, in the same setting: in the case of “TCGATTGGGAATTCCTCGCCCCGGTGGCGATGGGCTGGGCGCTGCATCACTGGTGGACGGTGATGACGGCGCTAGCGGCGGTAGGGGTGCCGCCATGAGGGGCGGGCCGCGCCGCCGGCCGGGAGCGCAAGGCATGAGCGATAGGCCGAAGGCGCGGCCGACGCCCCTGTAACACGTCAGATAAGCCACCTATTGCGGTTTCAATTCGTACCAATTTGGATCGTTAAAG (double strand) [P4 (PA0727 promoter)]” it was “binds”.
Take “TGCGCTCCGCCCACCGTTCGATGGACTCCACATCCTGTTGCGGCCCTATCAGGGCACTGGGGCTAAGCTCTTCCAGTTCCATGCTCATTCCGTCACTATTCGTGGCATTAGCCATACGCAGCTAGAGAAATAATTACCCTGGAGAAATTATTTCCCCAAAGCCACGTCAGGGCAACTATTTCCCCGGAATAAATTTCTATATGAGCACGTCAGCCGATAGAGCAAGACTATT (double strand) [P1 (xisF4-pf4r intergenic region)]”: the binding entry in data set [3] and in data set [2] was “binds” each time.
As to “TTCGCCGGGGTGATCGACACCAGCGCGGTGGAATCGGCGATCACCGATGGCCAGGGCGATATGAAGGCCATTGGCGGCTACATCGTCGGCGCCCTGGTGATCCTGGCCGTTGCCGGCCTGATCTACAGCATGTTGCGCAAGGCGTAACGGGTGCTCTGGTCGGTGTGGTTGGGGGCGTTCTTCGCCGGCGCCTTCATCACCGGGTACCGGACCGGCGAATTCTTCTAACCGAACAGACCGAGGCGGAAGCCCCCTCCGGAGTTTCCGGCAGGGGGCTTTTTTGTGTGGGGTCTTACG (double strand) [P3 (PA0724 promoter)]”, in data set [2], the binding entry is “no binding”.
